In patent US20170189519A1:

Key:
[1] = molecular target: H1-mini2-cluster1+5+6-GCN4 without leader sequence and with FLAG-thrombin-foldon-HIS; assay: ELISA, coated CR6261, HEK293F culture medium; the reference itself
[2] = molecular target: H1-mini2-cluster1+5+6-GCN4 without leader sequence and with FLAG-thrombin-foldon-HIS; assay: ELISA, coated CR6261, HEK293F culture medium; average of the parental
[3] = molecular target: H1-mini2-cluster1+5+6-GCN4 without leader sequence and with FLAG-thrombin-foldon-HIS; assay: ELISA, coated CR6261, P. pastoris culture medium; the reference itself
[4] = molecular target: H1-mini2-cluster1+5+6-GCN4 without leader sequence and with FLAG-thrombin-foldon-HIS; assay: ELISA, coated CR6261, P. pastoris culture medium; average of the parental

CR6261 (antibody)
fold increase of ratio over parental SEQ ID NO: 6 [1]: 1 fold
CR6261 binding signal [2]: 5.66e+06
ratio of CR6261 binding signal to HTRF signal [2]: 17.4
fold increase of ratio over parental SEQ ID NO: 6 [3]: 1 fold
CR6261 binding signal [4]: 238000
ratio of CR6261 binding signal to HTRF signal [4]: 5.94
